This note sets out measurements from patent US20120220489A1.

In test [1] the target is ERK1 (p44), human, Cell Signaling Technology 7416 (human) (UniProt P27361). Kind of test: RPA, competition: +free H3 peptide 10 nM.
Test [2] concerns the target Histone H3 recombinant protein, human, Upstate 14-494 (human) (UniProt P68431). Kind of test: RPA, competition: +free H3 peptide 10 nM.
Test [3] concerns the target ERK1 (p42) active (phospho), human, Active Motif 31 152 (human) (UniProt P27361). Kind of test: RPA, competition: +free H3 peptide 10 nM.
In test [4] the target is ERK1 (p44) active (GST tagged), human, Invitrogen PV 3311 (human) (UniProt P27361). Kind of test: RPA, competition: +free H3 peptide 10 nM.
The target in test [5] is Erk1-BSA 2.7x peptide-protein conjugate (human; bovine). Kind of test: RPA, competition: +free H3 peptide 10 nM.
Erk1-BSA 2.7x peptide-protein conjugate (human; bovine), sequence (peptide, as listed by the source limits assumed, chain 1 of 2): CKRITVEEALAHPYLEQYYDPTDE
Erk1-BSA 2.7x peptide-protein conjugate (human; bovine), sequence (P02769 25-607 limits assumed, chain 2 of 2): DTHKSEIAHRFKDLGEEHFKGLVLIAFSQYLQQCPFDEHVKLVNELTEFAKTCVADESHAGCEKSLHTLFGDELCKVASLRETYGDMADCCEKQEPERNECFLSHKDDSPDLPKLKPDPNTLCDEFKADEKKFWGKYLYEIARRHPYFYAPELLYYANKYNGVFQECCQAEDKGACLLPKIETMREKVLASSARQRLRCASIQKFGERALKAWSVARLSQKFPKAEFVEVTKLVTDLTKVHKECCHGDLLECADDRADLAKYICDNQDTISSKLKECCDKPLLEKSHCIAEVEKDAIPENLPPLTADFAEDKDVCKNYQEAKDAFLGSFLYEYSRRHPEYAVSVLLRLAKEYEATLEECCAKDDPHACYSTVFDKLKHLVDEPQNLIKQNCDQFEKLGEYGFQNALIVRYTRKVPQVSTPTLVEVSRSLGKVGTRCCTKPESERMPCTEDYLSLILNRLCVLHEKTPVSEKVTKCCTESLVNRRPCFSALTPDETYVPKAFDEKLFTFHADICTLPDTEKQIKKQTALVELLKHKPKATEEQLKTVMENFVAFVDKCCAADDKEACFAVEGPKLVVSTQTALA
Test [6] has as its target pErk1/2-BSA 2.7x peptide-protein conjugate (human; bovine). Kind of test: RPA, competition: +free H3 peptide 10 nM.
Test [7] deals with pRb recombinant protein, human, Active Motif 31 128 (human) (UniProt P06400). Kind of test: RPA, competition: +free H3 peptide 10 nM.
UniProt P06400, sequence (P06400 whole entry): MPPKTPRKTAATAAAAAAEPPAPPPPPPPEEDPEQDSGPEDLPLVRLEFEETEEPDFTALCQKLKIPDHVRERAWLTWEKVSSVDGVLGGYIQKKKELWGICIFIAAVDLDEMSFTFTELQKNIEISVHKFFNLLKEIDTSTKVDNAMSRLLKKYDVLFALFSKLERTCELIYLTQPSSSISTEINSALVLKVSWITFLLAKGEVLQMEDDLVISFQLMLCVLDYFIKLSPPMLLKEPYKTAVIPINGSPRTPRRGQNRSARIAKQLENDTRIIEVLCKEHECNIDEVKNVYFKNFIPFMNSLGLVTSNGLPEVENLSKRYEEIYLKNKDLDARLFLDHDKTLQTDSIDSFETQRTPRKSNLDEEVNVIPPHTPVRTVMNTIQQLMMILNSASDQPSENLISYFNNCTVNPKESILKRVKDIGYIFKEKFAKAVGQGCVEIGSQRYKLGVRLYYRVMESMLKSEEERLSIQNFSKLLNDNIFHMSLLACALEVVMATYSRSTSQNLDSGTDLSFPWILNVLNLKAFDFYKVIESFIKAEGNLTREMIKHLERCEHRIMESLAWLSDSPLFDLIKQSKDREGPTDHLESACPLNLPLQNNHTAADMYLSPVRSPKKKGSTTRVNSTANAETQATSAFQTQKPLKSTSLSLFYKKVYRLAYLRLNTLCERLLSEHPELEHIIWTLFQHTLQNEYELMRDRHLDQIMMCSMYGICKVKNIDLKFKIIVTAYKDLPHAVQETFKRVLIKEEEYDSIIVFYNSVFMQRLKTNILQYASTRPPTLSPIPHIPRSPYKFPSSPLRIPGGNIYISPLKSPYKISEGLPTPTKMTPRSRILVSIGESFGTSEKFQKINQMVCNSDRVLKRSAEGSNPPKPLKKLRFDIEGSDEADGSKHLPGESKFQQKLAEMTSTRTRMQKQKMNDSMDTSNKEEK
Test [8] deals with ERK2 (p42), human, Biosource PHO 0104 (human) (UniProt P28482). Kind of test: RPA, competition: +free H3 peptide 10 nM.
UniProt P28482, sequence (P28482 2-360 limits assumed): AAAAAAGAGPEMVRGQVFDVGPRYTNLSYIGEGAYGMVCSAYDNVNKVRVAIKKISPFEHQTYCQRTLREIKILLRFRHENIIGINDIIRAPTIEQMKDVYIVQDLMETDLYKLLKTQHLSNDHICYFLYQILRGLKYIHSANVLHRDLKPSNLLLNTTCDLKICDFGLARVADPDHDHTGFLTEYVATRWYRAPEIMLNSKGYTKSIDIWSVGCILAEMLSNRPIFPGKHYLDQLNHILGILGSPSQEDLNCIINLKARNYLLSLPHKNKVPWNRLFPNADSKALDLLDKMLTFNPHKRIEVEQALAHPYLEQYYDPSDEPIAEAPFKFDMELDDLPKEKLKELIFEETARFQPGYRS
For test [9], the target named is pRb-BSA 1x peptide-protein conjugate (bovine). Kind of test: RPA, competition: +free H3 peptide 10 nM.
pRb-BSA 1x peptide-protein conjugate (bovine), sequence (P02769 25-607 limits assumed): as the sequence (P02769 25-607 limits assumed, chain 2 of 2) above
Test [10] addresses ERK1 (p44) inactive (GST tagged), human, Invitrogen PV 3312 (human) (UniProt P27361). Kind of test: RPA, competition: +free H3 peptide 10 nM.
Test [11] deals with Histone H3-BSA 2.7x peptide-protein conjugate (bovine). Kind of test: RPA, competition: +free H3 peptide 10 nM.
Histone H3-BSA 2.7x peptide-protein conjugate (bovine), sequence (P02769 25-607 limits assumed): as the sequence (P02769 25-607 limits assumed, chain 2 of 2) above
The target in test [12] is Histone H3 recombinant protein, calf, Roche 11 034 758 001 (calf) (UniProt P68432). Kind of test: RPA, competition: +free H3 peptide 10 nM.
In test [13] the target is ERK1 (p44), human, Cell Signaling Technology 7416 (human) (UniProt P27361). Kind of test: RPA, competition: +free H3 peptide 10000 nM.
Test [14] deals with Histone H3 recombinant protein, human, Upstate 14-494 (human) (UniProt P68431). Kind of test: RPA, competition: +free H3 peptide 10000 nM.
Test [15] deals with Erk1-BSA 2.7x peptide-protein conjugate (human; bovine). Kind of test: RPA, competition: +free H3 peptide 10000 nM.
The target in test [16] is pRb recombinant protein, human, Active Motif 31 128 (human) (UniProt P06400). Kind of test: RPA, competition: +free H3 peptide 10000 nM.
In test [17] the target is ERK2 (p42), human, Biosource PHO 0104 (human) (UniProt P28482). Kind of test: RPA, competition: +free H3 peptide 10000 nM.
Test [18] concerns the target pRb-BSA 1x peptide-protein conjugate (bovine). Kind of test: RPA, competition: +free H3 peptide 10000 nM.
Test [19] has as its target Histone H3-BSA 2.7x peptide-protein conjugate (bovine). Kind of test: RPA, competition: +free H3 peptide 10000 nM.
Test [20] deals with Histone H3 recombinant protein, calf, Roche 11 034 758 001 (calf) (UniProt P68432). Kind of test: RPA, competition: +free H3 peptide 10000 nM.
Test [21] has as its target ERK1 (p44), human, Cell Signaling Technology 7416 (human) (UniProt P27361). Kind of test: RPA, competition: +free Erk1 peptide 1000 nM.
The target in test [22] is Histone H3 recombinant protein, human, Upstate 14-494 (human) (UniProt P68431). Kind of test: RPA, competition: +free Erk1 peptide 1000 nM.
For test [23], the target named is ERK1 (p42) active (phospho), human, Active Motif 31 152 (human) (UniProt P27361). Kind of test: RPA, competition: +free Erk1 peptide 1000 nM.
Test [24] has as its target ERK1 (p44) active (GST tagged), human, Invitrogen PV 3311 (human) (UniProt P27361). Kind of test: RPA, competition: +free Erk1 peptide 1000 nM.
In test [25] the target is Erk1-BSA 2.7x peptide-protein conjugate (human; bovine). Kind of test: RPA, competition: +free Erk1 peptide 1000 nM.
For test [26], the target named is pErk1/2-BSA 2.7x peptide-protein conjugate (human; bovine). Kind of test: RPA, competition: +free Erk1 peptide 1000 nM.
pErk1/2-BSA 2.7x peptide-protein conjugate (human; bovine), sequence (P02769 25-607 limits assumed): as the sequence (P02769 25-607 limits assumed, chain 2 of 2) above
Test [27] has as its target pRb recombinant protein, human, Active Motif 31 128 (human) (UniProt P06400). Kind of test: RPA, competition: +free Erk1 peptide 1000 nM.
The target in test [28] is ERK2 (p42), human, Biosource PHO 0104 (human) (UniProt P28482). Kind of test: RPA, competition: +free Erk1 peptide 1000 nM.
Test [29] deals with pRb-BSA 1x peptide-protein conjugate (bovine). Kind of test: RPA, competition: +free Erk1 peptide 1000 nM.
The target of test [30] is ERK1 (p44) inactive (GST tagged), human, Invitrogen PV 3312 (human) (UniProt P27361). Kind of test: RPA, competition: +free Erk1 peptide 1000 nM.
Test [31] deals with Histone H3-BSA 2.7x peptide-protein conjugate (bovine). Kind of test: RPA, competition: +free Erk1 peptide 1000 nM.
The target of test [32] is Histone H3 recombinant protein, calf, Roche 11 034 758 001 (calf) (UniProt P68432). Kind of test: RPA, competition: +free Erk1 peptide 1000 nM.
Test [33] concerns the target pErk1/2-BSA 2.7x peptide-protein conjugate (human; bovine). Kind of test: RPA, competition: +free pErk1/2 peptide 1000 nM.
In test [34] the target is pRb recombinant protein, human, Active Motif 31 128 (human) (UniProt P06400). Kind of test: RPA, competition: +free pErk1/2 peptide 1000 nM.
The target in test [35] is pRb-BSA 1x peptide-protein conjugate (bovine). Kind of test: RPA, competition: +free pErk1/2 peptide 1000 nM.
The target of test [36] is Histone H3-BSA 2.7x peptide-protein conjugate (bovine). Kind of test: RPA, competition: +free pErk1/2 peptide 1000 nM.
In test [37] the target is Histone H3 recombinant protein, calf, Roche 11 034 758 001 (calf) (UniProt P68432). Kind of test: RPA, competition: +free pErk1/2 peptide 1000 nM.

Where only a bound is given, the exact number is not on record here.

As to Histone H3 antibody, Abcam ab1791, the maximum standard curve signal in test [1] is under 0.01 RFI; in test [2], 7.04 RFI; in [3], under 0.01 RFI; in [4] it was under 0.01 RFI; in [5], under 0.01 RFI; in test [6], under 0.01 RFI. Further, the maximum standard curve signal in test [7] was under 0.01 RFI; in [8], under 0.01 RFI; in test [9], under 0.01 RFI; in test [10], under 0.01 RFI; in [11] it was 4.28 RFI; in test [12] it was 0.3 RFI. Moreover, the maximum standard curve signal in test [13] is under 0.01 RFI; in test [14], 0.07 RFI; in [15], 0.01 RFI; in test [16], under 0.01 RFI; in [17] it was under 0.01 RFI; in [18], under 0.01 RFI. Besides, the maximum standard curve signal in test [19] was 0.19 RFI; in test [20], under 0.01 RFI.
As to “p44/42 MAPK (Erk1/2) antibody, Biosource 44-654G”, the maximum standard curve signal is under 0.01 RFI in test [21]; 0.01 RFI in [22]; 0.01 RFI in test [23]; 0.02 RFI in test [24]; 0.14 RFI in [25]; 0.01 RFI in [26]. Further, the maximum standard curve signal in test [27] was found to be 0.01 RFI; in test [28] it was 0.01 RFI; in [29], 0.01 RFI; in test [30] it was 0.02 RFI; in test [31] it was 0.02 RFI; in test [32], 0.01 RFI.
On to “p44/42 MAPK phospho (pERK1/2) Thr202/Tyr204 antibody, Cell Signaling Technology #9101”, for which the maximum standard curve signal in [33] was found to be 0.1 RFI; in test [34], 0.01 RFI; in test [35], 0.01 RFI; in test [36], 0.1 RFI; in test [37] it was 0.01 RFI.
